# According to the supplement of paper PMC10065799, “High-throughput profiling of sequence recognition by tyrosine kinases and SH2 domains using bacterial peptide display” (eLife, 2023):
# Target: Jak2 (UniProt O60674)
# Test: phosphorylation enrichment, bacterial display (enrichment ratio); higher = better substrate or ligand; peptides without Tyr show the background
# 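Wherever phosphorylation enrichment, bacterial display is given: 11-residue human phosphosite peptides and single-mutation variants displayed on the E. coli surface, counted by deep sequencing, each peptide's frequency after selection divided by its frequency in the unselected input library; frequency after pTyr selection over input frequency; kinase dosed for 20-30% of maximal phosphorylation in three min.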
# Sequence of Jak2 (O60674 whole entry, looked up): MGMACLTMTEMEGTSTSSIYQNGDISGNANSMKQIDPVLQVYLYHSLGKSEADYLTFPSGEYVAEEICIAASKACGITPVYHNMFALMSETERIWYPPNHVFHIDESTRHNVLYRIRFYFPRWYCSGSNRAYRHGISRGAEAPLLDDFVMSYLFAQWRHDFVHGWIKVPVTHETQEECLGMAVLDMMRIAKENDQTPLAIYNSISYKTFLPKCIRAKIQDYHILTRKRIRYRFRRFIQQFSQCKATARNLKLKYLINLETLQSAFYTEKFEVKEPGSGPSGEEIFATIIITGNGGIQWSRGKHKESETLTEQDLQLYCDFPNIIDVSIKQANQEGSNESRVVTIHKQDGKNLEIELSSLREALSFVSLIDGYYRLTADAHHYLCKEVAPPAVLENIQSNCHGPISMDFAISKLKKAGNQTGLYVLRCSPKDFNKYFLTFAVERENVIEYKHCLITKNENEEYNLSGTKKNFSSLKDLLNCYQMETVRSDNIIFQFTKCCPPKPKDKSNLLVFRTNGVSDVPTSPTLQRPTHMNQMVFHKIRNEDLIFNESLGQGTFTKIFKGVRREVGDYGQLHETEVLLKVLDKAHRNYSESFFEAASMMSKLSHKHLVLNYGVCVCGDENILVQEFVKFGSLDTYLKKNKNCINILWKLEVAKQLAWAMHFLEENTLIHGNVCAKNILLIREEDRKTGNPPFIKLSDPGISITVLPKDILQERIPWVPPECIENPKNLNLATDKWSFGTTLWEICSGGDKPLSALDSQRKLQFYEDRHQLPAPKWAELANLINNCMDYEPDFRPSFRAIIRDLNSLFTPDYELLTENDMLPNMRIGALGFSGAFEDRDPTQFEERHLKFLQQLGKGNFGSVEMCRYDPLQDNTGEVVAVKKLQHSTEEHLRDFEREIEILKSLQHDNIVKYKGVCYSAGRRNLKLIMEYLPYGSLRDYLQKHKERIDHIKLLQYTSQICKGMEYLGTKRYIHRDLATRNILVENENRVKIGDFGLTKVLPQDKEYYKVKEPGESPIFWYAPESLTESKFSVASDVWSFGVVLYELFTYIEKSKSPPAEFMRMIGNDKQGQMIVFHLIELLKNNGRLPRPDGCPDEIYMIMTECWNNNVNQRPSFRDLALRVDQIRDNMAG
row,Sequence,phosphorylation enrichment
1,TYACSYTPVKA [FLNB_Y708],1.24
2,FASAEYQEALS [GALNS_Y461],0.759
3,DGQFVYKLTDF [TBK1_Y153_S151F],0.799
4,MAHDRYAAICS [OR8H2_Y123],0.44
5,IYRASYYRKGG [ALK_Y1282],0.753
6,GGYTRYCDGKK [PROS1_Y266_C265R],0.759
7,PLKALYLQQRL [ATM_Y2969_P2974L],0.634
8,KSEMSCIDGEK [SORBS1_Y485_Y485C],0.658
9,EEQKKYSNAMK [SCN5A_Y1494_Y1495S],0.56
10,NPPGMHPVTGP [LPP_Y346_Y346H],0.474
11,DKWFLYKMRDI [CPS1_Y879],1.32
12,GESSGYLRLAF [MEP1A_Y481_R476G],1.02
13,SFIGQYSGKKE [L1CAM_Y1229],0.532
14,DYCDLYGGEKF [PTPN11_Y66_Y63C],0.914
15,WFPFTYVEEDE [VAV3_Y842_S840Y_YF],1.1
16,KLNNEHLELNF [MME_Y497_Y497H_YF],0.813
17,SSDPDYLAAVD [GLB1_Y154],1.12

row,Sequence,phosphorylation enrichment
1,RSYSPYDYQPC [TNS1_Y796],0.789
2,PQGVSYIFTID [DCX_Y103_R102S_YF],1.48
3,SVMAEYGLYRA [VSX2_Y219_G223R],0.569
4,SASWTYVRWFD [PTDSS1_Y274_P269S],1.22
5,GDEEDYYEIPG [EGFR_opt_no-pY_2015],1.34
6,AEDEDYESVGA [SYKtide_2014],1.26
7,TLSGIYQYIIA [FOXL2_Y81],1.09
8,PGVNFYFRVSA,1.53
9,AVLVQYFMEHH [PTPN11_Y80_E76V_YF],1.07
10,EVQKNYEHLFK [PAM16_Y77],0.8
11,GVLKEYGGKVL [CPS1_Y529_V531G],0.537
12,AVDVTYDGHPV [FLNB_Y1020],0.724
13,ITRDIYETDYY [INSR_Y1185_M1180I],1.09
14,EAEALYQTTFQ [KRT73_Y325_K328T],1.13
15,LCRFGYANTSE [SI_Y1233_YF],0.706
16,NESVDSRATFP [MET_Y1003_Y1003S],0.826

# Target: SHP2-C SH2;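 further: peptide library displayed on the E. coli surface as eCPX fusions, selected cells deep-sequenced, score is each peptide's frequency after selection divided by its frequency in the input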
# Test: SH2 binding enrichment of the phosphorylated peptide, bacterial display (enrichment ratio); higher = better substrate or ligand; peptides without Tyr show the background
row,Sequence,SH2 binding enrichment
1,TYACSYTPVKA [FLNB_Y708],7.09
2,FASAEYQEALS [GALNS_Y461],0.598
3,DGQFVYKLTDF [TBK1_Y153_S151F],0.773
4,MAHDRYAAICS [OR8H2_Y123],1.91
5,IYRASYYRKGG [ALK_Y1282],0.702
6,GGYTRYCDGKK [PROS1_Y266_C265R],0.889
7,PLKALYLQQRL [ATM_Y2969_P2974L],1.17
8,KSEMSCIDGEK [SORBS1_Y485_Y485C],0.855
9,EEQKKYSNAMK [SCN5A_Y1494_Y1495S],0.617
10,NPPGMHPVTGP [LPP_Y346_Y346H],0.747
11,DKWFLYKMRDI [CPS1_Y879],0.661
12,GESSGYLRLAF [MEP1A_Y481_R476G],4.31
13,SFIGQYSGKKE [L1CAM_Y1229],0.622
14,DYCDLYGGEKF [PTPN11_Y66_Y63C],0.525
15,WFPFTYVEEDE [VAV3_Y842_S840Y_YF],1.48
16,KLNNEHLELNF [MME_Y497_Y497H_YF],0.542
17,SSDPDYLAAVD [GLB1_Y154],0.742

row,Sequence,SH2 binding enrichment
1,RSYSPYDYQPC [TNS1_Y796],0.638
2,PQGVSYIFTID [DCX_Y103_R102S_YF],1.73
3,SVMAEYGLYRA [VSX2_Y219_G223R],0.702
4,SASWTYVRWFD [PTDSS1_Y274_P269S],0.938
5,GDEEDYYEIPG [EGFR_opt_no-pY_2015],0.67
6,AEDEDYESVGA [SYKtide_2014],0.975
7,TLSGIYQYIIA [FOXL2_Y81],1.87
8,PGVNFYFRVSA,0.701
9,AVLVQYFMEHH [PTPN11_Y80_E76V_YF],1.51
10,EVQKNYEHLFK [PAM16_Y77],0.77
11,GVLKEYGGKVL [CPS1_Y529_V531G],0.559
12,AVDVTYDGHPV [FLNB_Y1020],0.476
13,ITRDIYETDYY [INSR_Y1185_M1180I],0.695
14,EAEALYQTTFQ [KRT73_Y325_K328T],0.739
15,LCRFGYANTSE [SI_Y1233_YF],0.881
16,NESVDSRATFP [MET_Y1003_Y1003S],0.625
